Measurements as given in PMC5882713, “Sensitive colorimetric assay using insulin G-quadruplex aptamer arrays on DNA nanotubes coupled with magnetic nanoparticles”.

Target: insulin (UniProt P01308;P01308 25-54;90-110)
Experiment: circular dichroism; 20 uM aptamer, 100 nM insulin; G4 spectrum (min 245 nm, max 275 nm) after interaction with insulin; Binding buffer 20 mM Tris-HCl, 140 mM NaCl, 5 mM KCl, 1 mM CaCl2, 1 mM MgCl2, pH 7.4, room temperature, 40-60 min; then hemin in DMSO 1 h and TMB-H2O2; random N30 control is a pool and not listed
Conditions: protein: commercial, copies: 1;1, label: 5' biotin

Sequence of insulin (P01308 25-54, chain 1 of 2): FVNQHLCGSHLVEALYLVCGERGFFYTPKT
Sequence of insulin (P01308 90-110, chain 2 of 2): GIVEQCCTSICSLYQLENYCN

GGTGGTGGGGGGGGTTGGTAGGGTGTCTTC (structured_DNA) [G-quadruplex insulin aptamer (G-rich aptamer)]
binding result: binds
